We go through five sequences from the supplement of paper PMC5998384.

The subject of data set [1] is HeLa Kyoto. The data set can be described thus: melting temperature (median over replicates), in situ; higher = more thermally stable.
The subject of data set [2] is HeLa Kyoto. Kind of data set: thermal stability score vs G1/S (z-score of summed log2 fold changes over temperatures); higher = more thermally stable than in G1/S.
The test system of data set [3] is HeLa Kyoto. Kind of data set: solubility change mitosis vs G1/S (difference of NP-40 vs SDS log2 ratios) (log2 ratio difference); higher = more soluble in mitosis.
Data set [4] concerns HeLa Kyoto. Kind of data set: solubility in G1/S (NP-40 vs SDS abundance) (log2 ratio); higher = more soluble. The settings on record: cell cycle stage: G1/S.
Setting [5] is: cell cycle stage: early G1 (4.5 h after nocodazole release).
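For melting temperature (median over replicates), in situ in this document: HeLa Kyoto cells synchronized by double thymidine or nocodazole block, proteins quantified by TMT10plex mass spectrometry, three independent biological replicates.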
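For solubility change mitosis vs G1/S (difference of NP-40 vs SDS log2 ratios) in this document: synchronized HeLa Kyoto cells (double thymidine block for G1/S, nocodazole release for mitosis), protein amounts in NP-40 versus SDS lysates quantified by mass spectrometry, three biological replicates.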
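For solubility in G1/S (NP-40 vs SDS abundance) in this document: HeLa Kyoto cells arrested at G1/S by double thymidine block, proteins quantified by TMT10plex mass spectrometry in mild NP-40 versus SDS extracts, three biological replicates.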
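For thermal stability score vs G1/S (z-score of summed log2 fold changes over temperatures) in this document: synchronized HeLa Kyoto cells, proteins quantified by TMT10plex mass spectrometry, three biological replicates, mitosis taken 0.5 h after nocodazole release, G1/S directly after double thymidine block.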

As for “MGSSKKVTLSVLSREQSEGVGARVRRSIGRPELKNLDPFLLFDEFKGGRPGGFPDHPHRGFETVSYLLEGGSMAHEDFCGHTGKMNPGDLQWMTAGRGILHAEMPCSEEPAHGLQLWVNLRSSEKMVEPQYQELKSEEIPKPSKDGVTVAVISGEALGIKSKVYTRTPTLYLDFKLDPGAKHSQPIPKGWTSFIYTISGDVYIGPDDAQQKIEPHHTAVLGEGDSVQVENKDPKRSHFVLIAGEPLREPVIQHGPFVMNTNEEISQAILDFRNAKNGFERAKTWKSKIGN [PIR]”, the melting temperature in the data set with HeLa Kyoto [1] (cell cycle stage: G1/S) was determined as 51.8 °C; with HeLa Kyoto [1] (cell cycle stage: mitosis) it was 51.6 °C. For the same sequence, the values for the thermal stability score with HeLa Kyoto [2] (setting [5]) and in the data set on HeLa Kyoto [2] (cell cycle stage: mitosis) were -1.49 and -1.89, respectively. Besides, in the data set on HeLa Kyoto [3], the “solubility change mitosis (log2)” value was -0.0437. Further, the “solubility in G1/S (log2)” value with HeLa Kyoto [4] turned out to be 0.288.
Take “MGTRLPLVLRQLRRPPQPPGPPRRLRVPCRASSGGGGGGGGGREGLLGQRRPQDGQARSSCSPGGRTPAARDSIVREVIQNSKEVLSLLQEKNPAFKPVLAIIQAGDDNLMQEINQNLAEEAGLNITHICLPPDSSEAEIIDEILKINEDTRVHGLALQISENLFSNKVLNALKPEKDVDGVTDINLGKLVRGDAHECFVSPVAKAVIELLEKSGVNLDGKKILVVGAHGSLEAALQCLFQRKGSMTMSIQWKTRQLQSKLHEADIVVLGSPKPEEIPLTWIQPGTTVLNCSHDFLSGKVGCGSPRIHFGGLIEEDDVILLAAALRIQNMVSSGRRWLREQQHRRWRLHCLKLQPLSPVPSDIEISRGQTPKAVDVLAKEIGLLADEIEIYGKSKAKVRLSVLERLKDQADGKYVLVAGITPTPLGEGKSTVTIGLVQALTAHLNVNSFACLRQPSQGPTFGVKGGAAGGGYAQVIPMEEFNLHLTGDIHAITAANNLLAAAIDTRILHENTQTDKALYNRLVPLVNGVREFSEIQLARLKKLGINKTDPSTLTEEEVSKFARLDIDPSTITWQRVLDTNDRFLRKITIGQGNTEKGHYRQAQFDIAVASEIMAVLALTDSLADMKARLGRMVVASDKSGQPVTADDLGVTGALTVLMKDAIKPNLMQTLEGTPVFVHAGPFANIAHGNSSVLADKIALKLVGEEGFVVTEAGFGADIGMEKFFNIKCRASGLVPNVVVLVATVRALKMHGGGPSVTAGVPLKKEYTEENIQLVADGCCNLQKQIQITQLFGVPVVVALNVFKTDTRAEIDLVCELAKRAGAFDAVPCYHWSVGGKGSVDLARAVREAASKRSRFQFLYDVQVPIVDKIRTIAQAVYGAKDIELSPEAQAKIDRYTQQGFGNLPICMAKTHLSLSHQPDKKGVPRDFILPISDVRASIGAGFIYPLVGTMSTMPGLPTRPCFYDIDLDTETEQVKGLF [MTHFD1L]”: the melting temperature with HeLa Kyoto [1] (cell cycle stage: G1/S) was 51.7 °C; with HeLa Kyoto [1] (cell cycle stage: mitosis), 51.5 °C. Besides, the thermal stability score is -0.3 in the data set on HeLa Kyoto [2] (setting [5]) and 0.0484 in the data set with HeLa Kyoto [2] (cell cycle stage: mitosis). Also, the “solubility change mitosis (log2)” value in the data set with HeLa Kyoto [3] was -0.101. Moreover, the “solubility in G1/S (log2)” value in the data set on HeLa Kyoto [4] worked out at 0.247.
On to “MGVPAFFRWLSRKYPSIIVNCVEEKPKECNGVKIPVDASKPNPNDVEFDNLYLDMNGIIHPCTHPEDKPAPKNEDEMMVAIFEYIDRLFSIVRPRRLLYMAIDGVAPRAKMNQQRSRRFRASKEGMEAAVEKQRVREEILAKGGFLPPEEIKERFDSNCITPGTEFMDNLAKCLRYYIADRLNNDPGWKNLTVILSDASAPGEGEHKIMDYIRRQRAQPNHDPNTHHCLCGADADLIMLGLATHEPNFTIIREEFKPNKPKPCGLCNQFGHEVKDCEGLPREKKGKHDELADSLPCAEGEFIFLRLNVLREYLERELTMASLPFTFDVERSIDDWVFMCFFVGNDFLPHLPSLEIRENAIDRLVNIYKNVVHKTGGYLTESGYVNLQRVQMIMLAVGEVEDSIFKKRKDDEDSFRRRQKEKRKRMKRDQPAFTPSGILTPHALGSRNSPGSQVASNPRQAAYEMRMQNNSSPSISPNTSFTSDGSPSPLGGIKRKAEDSDSEPEPEDNVRLWEAGWKQRYYKNKFDVDAADEKFRRKVVQSYVEGLCWVLRYYYQGCASWKWYYPFHYAPFASDFEGIADMPSDFEKGTKPFKPLEQLMGVFPAASGNFLPPSWRKLMSDPDSSIIDFYPEDFAIDLNGKKYAWQGVALLPFVDERRLRAALEEVYPDLTPEETRRNSLGGDVLFVGKHHPLHDFILELYQTGSTEPVEVPPELCHGIQGKFSLDEEAILPDQIVCSPVPMLRDLTQNTVVSINFKDPQFAEDYIFKAVMLPGARKPAAVLKPSDWEKSSNGRQWKPQLGFNRDRRPVHLDQAAFRTLGHVMPRGSGTGIYSNAAPPPVTYQGNLYRPLLRGQAQIPKLMSNMRPQDSWRGPPPLFQQQRFDRGVGAEPLLPWNRMLQTQNAAFQPNQYQMLAGPGGYPPRRDDRGGRQGYPREGRKYPLPPPSGRYNWN [XRN2]”, for which the values for the melting temperature in the data set on HeLa Kyoto [1] (cell cycle stage: G1/S) and in the data set with HeLa Kyoto [1] (cell cycle stage: mitosis) were 50.2 °C and 50.4 °C, respectively. The figures for the thermal stability score in the data set on HeLa Kyoto [2] (setting [5]) and with HeLa Kyoto [2] (cell cycle stage: mitosis) were 1.15 and 0.632, respectively. Also, the “solubility change mitosis (log2)” value with HeLa Kyoto [3] amounted to 0.128. For the same sequence, in the data set with HeLa Kyoto [4], the “solubility in G1/S (log2)” value is -0.126.
As for “MGVQGLWKLLECSGRQVSPEALEGKILAVDISIWLNQALKGVRDRHGNSIENPHLLTLFHRLCKLLFFRIRPIFVFDGDAPLLKKQTLVKRRQRKDLASSDSRKTTEKLLKTFLKRQAIKTAFRSKRDEALPSLTQVRRENDLYVLPPLQEEEKHSSEEEDEKEWQERMNQKQALQEEFFHNPQAIDIESEDFSSLPPEVKHEILTDMKEFTKRRRTLFEAMPEESDDFSQYQLKGLLKKNYLNQHIEHVQKEMNQQHSGHIRRQYEDEGGFLKEVESRRVVSEDTSHYILIKGIQAKTVAEVDSESLPSSSKMHGMSFDVKSSPCEKLKTEKEPDATPPSPRTLLAMQAALLGSSSEEELESENRRQARGRNAPAAVDEGSISPRTLSAIKRALDDDEDVKVCAGDDVQTGGPGAEEMRINSSTENSDEGLKVRDGKGIPFTATLASSSVNSAEEHVASTNEGREPTDSVPKEQMSLVHVGTEAFPISDESMIKDRKDRLPLESAVVRHSDAPGLPNGRELTPASPTCTNSVSKNETHAEVLEQQNELCPYESKFDSSLLSSDDETKCKPNSASEVIGPVSLQETSSIVSVPSEAVDNVENVVSFNAKEHENFLETIQEQQTTESAGQDLISIPKAVEPMEIDSEESESDGSFIEVQSVISDEELQAEFPETSKPPSEQGEEELVGTREGEAPAESESLLRDNSERDDVDGEPQEAEKDAEDSLHEWQDINLEELETLESNLLAQQNSLKAQKQQQERIAATVTGQMFLESQELLRLFGIPYIQAPMEAEAQCAILDLTDQTSGTITDDSDIWLFGARHVYRNFFNKNKFVEYYQYVDFHNQLGLDRNKLINLAYLLGSDYTEGIPTVGCVTAMEILNEFPGHGLEPLLKFSEWWHEAQKNPKIRPNPHDTKVKKKLRTLQLTPGFPNPAVAEAYLKPVVDDSKGSFLWGKPDLDKIREFCQRYFGWNRTKTDESLFPVLKQLDAQQTQLRIDSFFRLAQQEKEDAKRIKSQRLNRAVTCMLRKEKEAAASEIEAVSVAMEKEFELLDKAKGKTQKRGITNTLEESSSLKRKRLSDSKGKNTCGGFLGETCLSESSDGSSSEDAESSSLMNVQRRTAAKEPKTSASDSQNSVKEAPVKNGGATTSSSSDSDDDGGKEKMVLVTARSVFGKKRRKLRRARGRKRKT [ERCC5]”, the melting temperature was 50.7 °C in the data set with HeLa Kyoto [1] (cell cycle stage: G1/S) and 51.4 °C with HeLa Kyoto [1] (cell cycle stage: mitosis). Further, the figures for the thermal stability score with HeLa Kyoto [2] (setting [5]) and in the data set with HeLa Kyoto [2] (cell cycle stage: mitosis) were 0.19 and 1.18, respectively. For the same sequence, in the data set on HeLa Kyoto [3], the “solubility change mitosis (log2)” value is -0.0796. Moreover, the “solubility in G1/S (log2)” value in the data set on HeLa Kyoto [4] was -0.112.
“MGVTCVSQMPVAEGKSVQQTVELLTRKLEMLGAEKQGTFCVDCETYHTAASTLGSQGQTGKLMYVMHNSEYPLSCFALFENGPCLIADTNFDVLMVKLKGFFQSAKASKIETRGTRYQYCDFLVKVGTVTMGPSARGISVEVEYGPCVVASDCWSLLLEFLQSFLGSHTPGAPAVFGNRHDAVYGPADTMVQYMELFNKIRKQQQVPVAGIR [MED20]”: the melting temperature in the data set on HeLa Kyoto [1] (cell cycle stage: G1/S) is 51.7 °C; in the data set with HeLa Kyoto [1] (cell cycle stage: mitosis), 52.7 °C. Also, the thermal stability score is -0.587 with HeLa Kyoto [2] (setting [5]) and -0.494 with HeLa Kyoto [2] (cell cycle stage: mitosis). The “solubility change mitosis (log2)” value in the data set with HeLa Kyoto [3] is -0.0509. Also, the “solubility in G1/S (log2)” value in the data set on HeLa Kyoto [4] was determined as 0.339.
